Some results are limits rather than exact numbers.

The data set is described as follows: soluble fraction after stress (log2 fold change); higher = more stays soluble; pooled small domains, quantitative proteomics. To be noted: stress: pH 4. Put shortly:
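Values are on a log2 scale, where higher means more of the domain stayed soluble after pH 4 stress. They are fold changes in the soluble amount of each domain from pooled custom libraries, measured by high-throughput quantitative proteomics. The fold change is taken to reflect aggregation propensity.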
Consider “HMQDPTAVISRVLEERKHQPGALLPILHGIQDALGYVPREAVAQIAQALNLSRAEIHGVVSFYHHFR”, for which the “soluble fraction (log2)” value was -0.311. Take “HMQDPVWVDWLGENDWFQKDPKRRGLANGYSEILRAEQPELVGRPFLDEVTRRVQADFPELFG”: the “soluble fraction (log2)” value was -1.33.

“HMQDTRSHARKMLAAIEALLEGRSGSDIQAYTIHNRSITKMTVPELVKWRSYYQQQVRSEDAAASLA”: the “soluble fraction (log2)” value stood at 0.206. For the sequence “HMQDTYLYPVQHNGKVRLQVELPAKGLPEDLVRLALAHPKVVEWLNGRIPTKTIAVPGRIINMVLPNQ”, the “soluble fraction (log2)” value amounted to 0.18. “HMQDVWEPFLAKGYVFADGMLTKLIHKRGDVYKTQEIGSDKIIYVIKDGDTFAHGKTVKAAMLDLAFKKS”: the “soluble fraction (log2)” value is -0.392. “HMQDYISAEEAKSAALSASQVDSAGAAFSAAELGEKNGIPYYEVAFTADGLEYRYAIDAQTGTVIESSSSG”: the “soluble fraction (log2)” value is -0.164. In the case of HMQEDKVRKLTEMGFAEDQAREALRKHDWDETMALNSL, the “soluble fraction (log2)” value is -0.244.

For the sequence “HMQEDSNISFVKIHVDADSGMAHKKLSKLSLPTGFLIVVIIRGEENIIPNGETEVLPGDLLVAAAREFEN”, the “soluble fraction (log2)” value was -0.811. The figure for “HMQEEELYPRLEEVINQHRGKGEDLIMVLHKAQNLFGYLPRRAQEMVAEGLNVSLNEVYGVITFYNFFST” is -0.342; for “HMQEERDISFIKIHLEPGHPWRGRALRELMPLKDLLIVMVVRGEDTIVPNGDTRLEEGDLLVLAAYPFEE” it is -2.57. Under “HMQEHAHLWRLMEDNRSFKADYIAFENGIVLLQNLSSGKISQYPITDFSIEDQLLILKRHELTAHINAN” stands -0.0419; under “HMQEIKPEPISDGRVWKEGMWATTPLGIEGQLLSDPDEKGMVQLGYGNMRININIQDLDPSR”, -0.207. Under “HMQEISQEEALATVLKDLSLTEADLKDLQITREEDKYKILFSKGQTAYDVLVSAKDGQLLQSKQETI” stands -0.359; under “HMQEKQIIDGREFYIHQVERGITLYSIAKQYNVKVADIQAENPFLEAGLQPGQTLKIPLDKVETVQEIK”, -0.17. Regarding “HMQEPIAVPDFINKSAVDVLVNPVFTQNFKLVSEDVYDDKVPEGYIVGQSVKSDTLVQPGTEIVIYV”, the “soluble fraction (log2)” value worked out at 0.0962. Consider “HMQEPNYQPLMQNIKSQDLEEVTRLLSLNDVKFKIDHRTGLLLVESSRVYEAKMKLAATGITD”, for which the “soluble fraction (log2)” value is -1.15. Under “HMQEPVHFTRRERQVLSLILSGQATAEIAKTLGIANATVTTYKKSLYSKSGTNSLSRLLIWAMVRR” stands -0.332; under “HMQEPVYRPVFPGMTDADRQSAMEALKEGGFSPRLNRQTGQLEVDASGYHEAKIYLASQGIPAE”, 0.22. As for “HMQERNYIVRRGDTLWDLAKTYYGSGTKYTVIYDANRDNIEAEAKRRGKQSSNGGYWIYPGTELTI”, the “soluble fraction (log2)” value was -0.0819. Turning to “HMQERTVVKGVVVQVSRDEAYVDIGYKQEIPVSKRDLAVPAPDDARDVVKVGDEIDVYIKSLGGDNGG”, the “soluble fraction (log2)” value was -0.0346. Under “HMQESTPGEGYKWREDVLLRVMSQNGIDESLRDEFVRHAVNYDIDDNMYLKKAEIESAAEAWVLENS” stands -1.92; under “HMQESVTVSAQALRRLLEKGDGDAALLYLALLRHHGTIQPRALAGELRWERPRIEAAEEALRQMGLIA”, 0.121. With “HMQETMTNDEVISLTKAGLSSSIIIGKIRSSATNFDLSTDSLIKLKQAGVSDETVAAMLEAKS”, the “soluble fraction (log2)” value stood at 0.181. The figure for “HMQGAARGMLFAQAQRWMTKFRIDPQQADRITQAALDPAQTDAILREVRRGYGPSAERALRGIIRRARRA” is 0.259. Regarding “HMQGEAMQETVKKLDAFLQDNSVSMSALARALGVSPSLISQFRSGSYKGDSQAIAAKINSYIDNHNKKSK”, the “soluble fraction (log2)” value was 0.0656. On to “HMQGEKDDLWREVLDNPDAWWDNRERKNAPGGNPRYPDFKHKDSQTPLWIESRDTPQWAIDALL”, for which the “soluble fraction (log2)” value is -0.406.

For the sequence “HMQGNGKVATELLKDIIASDNLYINAMRMLVMHYNSKGTNQVEMVKLLHNILDLVPDDEYANEILKSAKKA”, the “soluble fraction (log2)” value is -0.637. For the sequence “HMQGPDPYAVLGIDRHADERAIKRAYRKLISEHHPDRLGDLPEDMRKRAESRASEINAAYDRIKEARGF”, the “soluble fraction (log2)” value was 0.13. For “HMQGQVLQETARKARSQLDSEIPGFNDALYQNLIKSSENYGYKAEEVAQWVDPRAIKVLNDAYQFQQLKAG”, the “soluble fraction (log2)” value was -0.25.

For “HMQGTTTELLIQKSALYEELNDPEKALNAMFDAFEMDSLNVNVLHRIVSLLLDKEENEKAILYNQLIIDH”, the “soluble fraction (log2)” value is -0.507.

With “HMQHQSGLKSGEFEAISQQLQALLKENPLSLQEIKDKMQVTENHLIKVVSYLVSEEIIRQENGYLK”, the “soluble fraction (log2)” value is -1.67. Consider “HMQIAGLDDIDNRIIDLLLKNGRASYSEIGAAVGLSRTAAKNRIRALEASGIIRGYQAILDPQA”, for which the “soluble fraction (log2)” value was determined as 0.0596. With “HMQIDDSVELSAIVEKLLAANPEQVEQLKNGKTKVLGYFVGLAMKETQGRANPQKVNELIQTHL”, the “soluble fraction (log2)” value was -0.308. As for “HMQIDRLFDIVYTLLRKKSATAAELAERFGVSKRTILRDIETLSVAGIPILTSPGKGGGVSISSSF”, the “soluble fraction (log2)” value is -0.423. With “HMQIIETTVGRVLFNEKVPEAAGYINEVLTKKSLRDIIHGILKKTSVPETAAFLDEIKSLGYNFAF”, the “soluble fraction (log2)” value is -0.264. As to “HMQIIEVPYSEFLKKLESGQISEVSRDSYQIVFTDRSQPPIIYKTGLMEDPGLVDKMQEAGVTFTSP”, the “soluble fraction (log2)” value was -0.228.

As to “HMQIKNVDYGTFLDMLDEKNVKEVEIEDEQIVFTDNADPTGYYTTGRMEDPDLVDRLHNSGATFSAI”, the “soluble fraction (log2)” value is -0.841. In the case of “HMQILLASHAELAKGILSAVELIAGTQQNLKAYSAYTEAVDVHFKDQMLQDLNKMDPEDEVIL”, the “soluble fraction (log2)” value was found to be 0.0244. As for “HMQINLSEWVLAAREYAGPEMTQEKLAEHLGRTKANVSAMENGRSKPSFEQMMEIHRVTGYPLPYQ”, the “soluble fraction (log2)” value was -0.0156.

“HMQISDAGALLDAVRRVLAENPAQVEQFRAGKEKVMGFLVGQVMRATGGKANPQMLNDVLREELS”: the “soluble fraction (log2)” value came to 0.198. As for “HMQISDEGELSGIVRKIIDANPQSVADYKAGKKKAIGFLVGQIMIETKGRANPASVNELLIKKLE”, the “soluble fraction (log2)” value came out at 0.105. Turning to “HMQISDNTILEDAVSRIIDENPKSVSDYFQGKEAVVGFFIGQIMRETKGTANPKIAREIVISHLEAI”, the “soluble fraction (log2)” value was -0.819. As to “HMQISGIHLYERRITKDDEWAERKLSEISLAGSLVILILRNEHVVIPNGETVLKENDLLYISD”, the “soluble fraction (log2)” value is -1.38. Take “HMQISGSEELEKIVQTVLEKNTDVVEEYKSGKTKVFAFLMGQVMKESRGKANPRLAKDILEKFLA”: the “soluble fraction (log2)” value stood at 0.177.

Take “HMQITAPVQKIDGVEYYMHKVEQGQTLYSISKLYNVGVKEIQKANQLGTEGIQLGQVLKVRKGG”: the “soluble fraction (log2)” value is 0.00111. As to “HMQIYLTPEQFKIIDFMEQMGKITVKDVMDILNIPKRTAQLHLQKLKTLKMIAQTGKGPSSAYLL”, the “soluble fraction (log2)” value is -0.797. Consider “HMQKDAYVPDIISKLKSSRMIVVEGTIYPLLTRLKNTGLLSYRWEESLQGPPRKYYSITEQG”, for which the “soluble fraction (log2)” value is -0.0816.

As for “HMQKDYKTRLQEYYAKVGKKVNYMDSSTGPDHDKKFQTQVFLDKEIIGVGEGKSKKSSQQEAAKQALEKI”, the “soluble fraction (log2)” value is not below 0.43. With “HMQKFINQEHEKAYNLMLEKDYQQALKIFDDLIYLFPNEANLLSDRGVIFIHLNKKEAALQDFDQAVF”, the “soluble fraction (log2)” value is -1.49. In the case of “HMQKIEKVDYGTFLKMIENGEIDQVNLTEKKISFTTDKDAETVYETGRVEDPNIVDRLYQADVEFTQEI”, the “soluble fraction (log2)” value was -0.884. For the sequence “HMQKIENYDQFVQAFKRLSGLDLKLYKENQMKRRINNFINNHGFKENYDQFFQAITGNKELYNAFFKHLTI”, the “soluble fraction (log2)” value was -0.395.

The values above are taken from the domain aggregation screens of Martell et al. (2025).
